# Test results published in the supplement of paper PMC10567573.
# B1: EPB41L3 (parent)
# chain: SELGDYDPDECGSDYISEFRFAPN
# Variants of: B1
# Test: protein stability index of a GFP-peptide fusion (GPS, HEK-293T) (PSI 1-6); higher = more stable
# Details: c terminus: a fixed tail appended
# 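Also: lentivirally expressed fusions sorted by FACS into six bins by GFP to DsRed ratio, PSI derived from sequencing read proportions per bin multiplied by bin number.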
row,Variant,protein stability index
1,SELGDYDPDECGSTYISEFRFAPN,2.58
2,SELGDYDPDECGSNYISEFRFAPN,1.99
3,SELGDYDPDECGSPYISEFRFAPN,1.63
4,SELGDYDPDECGSIYISEFRFAPN,2.32
5,SELGDYDPDECGSWYISEFRFAPN,1.66
6,SELGDYDPDECGSMYISEFRFAPN,2.07
7,SELGDYDPDECGSDYISEFRFAPS,1.87
8,SELGDYDPDECGSDYISEFRFAPF,2.25
9,SELGDYDPDECGSDYISEFRFAPC,1.64
10,SELGDYDPDECGSDYISEFRFAPI,2.55
11,SELGDYDPDECGSDYISEFRFAPG,2.33
12,SELGDYDPDECGSDYISEFRFAPY,2.15
13,SELGDYDPDECGSDYISEFRFAPE,3.33
14,SELGDYDPDECGSDYISEFRFAPM,1.79
15,SELGDYDPDECGSDYISEFRFAPK,1.69
16,SELGDYDPDECGSDYISEFRFAPQ,2.09
17,SELGDYDDDECGSDYISEFRFAPN,2.13
18,SELGDYDIDECGSDYISEFRFAPN,1.77
19,SELGDYDLDECGSDYISEFRFAPN,2.26
20,SELGDYDCDECGSDYISEFRFAPN,1.51
21,SELGDYDRDECGSDYISEFRFAPN,2.1
22,SELGDYDTDECGSDYISEFRFAPN,1.92
23,SELGDYDWDECGSDYISEFRFAPN,1.76
24,SELGDYDHDECGSDYISEFRFAPN,2.1

row,Variant,protein stability index
1,SELGDYDEDECGSDYISEFRFAPN,2.29
2,SELGDYDPRECGSDYISEFRFAPN,2.12
3,SELGDYDPQECGSDYISEFRFAPN,2.25
4,SELGDYDPEECGSDYISEFRFAPN,2.4
5,SELGDYDPGECGSDYISEFRFAPN,2.03
6,SELGDYDPTECGSDYISEFRFAPN,1.47
7,SELGDYDPHECGSDYISEFRFAPN,1.92
8,SELGDYDPMECGSDYISEFRFAPN,2.01
9,SELGDYDPIECGSDYISEFRFAPN,1.32
10,SELGDYDPAECGSDYISEFRFAPN,1.93
11,SELGDYDPCECGSDYISEFRFAPN,1.92
12,SELGDYDPSECGSDYISEFRFAPN,2.01
13,SELGDYDPWECGSDYISEFRFAPN,1.63
14,SELGDYDPPECGSDYISEFRFAPN,1.41
15,SELGDYDPVECGSDYISEFRFAPN,1.87
16,SELGDYDPDESGSDYISEFRFAPN,2.51
17,SELGDYDPDEMGSDYISEFRFAPN,2
18,SELGDYDPDENGSDYISEFRFAPN,2.27
19,SELGDYDPDEWGSDYISEFRFAPN,1.68
20,SELGDYDPDELGSDYISEFRFAPN,2.06
21,SELGDYDPDEPGSDYISEFRFAPN,1.78
22,SELGDYDPDETGSDYISEFRFAPN,1.94
23,SELGDYDPDEEGSDYISEFRFAPN,2.7
24,SELGEYDPDECGSDYISEFRFAPN,1.7

row,Variant,protein stability index
1,SELGVYDPDECGSDYISEFRFAPN,1.51
2,SELGAYDPDECGSDYISEFRFAPN,1.96
3,SELGMYDPDECGSDYISEFRFAPN,1.71
4,SELGNYDPDECGSDYISEFRFAPN,1.99
5,SELGDYDPDECGSDYISEFRIAPN,4.38
6,SELGDYDPDECGSDYISEFRHAPN,4.17
7,SELGDYDPDECGSDYISEFRKAPN,5.22
8,SELGDYDPDECGSDYISEFRSAPN,5.07
9,SELGDYDPDECGSDYISEFRCAPN,4.69
10,SELGDYDPDECGSDYISEFRTAPN,4.87
11,SELGDYDPDECGSDYISEFRPAPN,4.96
12,SELGDYDPDECGSDYISEFRQAPN,4.97
13,SELGDYDPDECYSDYISEFRFAPN,2.32
14,SELGDYDPDECTSDYISEFRFAPN,1.93
15,SELGDYDPDECWSDYISEFRFAPN,1.83
16,SELGDYDPDECISDYISEFRFAPN,2.16
17,SELGDYDPDECVSDYISEFRFAPN,1.95
18,SELGDYDPDECNSDYISEFRFAPN,2
19,SELGDYDPDECGSDYIIEFRFAPN,1.94
20,SELGDYDPDECGSDYIKEFRFAPN,2.32
21,SELGDYDPDECGSDYIYEFRFAPN,1.7
22,SELGDYDPDECGSDYILEFRFAPN,2.68
23,SELGDYDPDECGSDYIAEFRFAPN,2.33
24,SELGDYDPDECGSDYIQEFRFAPN,2.44

row,Variant,protein stability index
1,SELGDYDPDECGSDYIPEFRFAPN,1.52
2,SELGDYDPDECGSDYIDEFRFAPN,3.94
3,SELGDYDPDECGSDYIVEFRFAPN,2.2
4,SELGDYDPDECGSDYITEFRFAPN,1.61
5,SELGDYDPDECGSDYISEFHFAPN,4.32
6,SELGDYDPDECGSDYISEFDFAPN,4.72
7,SELGDYDPDECGSDYISEFFFAPN,4.09
8,SELGDYDPDECGSDYISEFKFAPN,4.53
9,SELGDYDPDECGSDYISEFAFAPN,4.25
10,SELGDYDPDECGSDYISEFCFAPN,4.56
11,SELGDYDPDECGSDYISEFYFAPN,3.75
12,SELGDYDPDECGSDYISEFMFAPN,3.92
13,SELGDYDPDECGSDGISEFRFAPN,3.75
14,SELGDYDPDECGSDTISEFRFAPN,2.7
15,SELGDYDPDECGSDEISEFRFAPN,4.13
16,SELGDYDPDECGSDKISEFRFAPN,2.77
17,SELGDYDPDECGSDLISEFRFAPN,2.35
18,SELGDYDPDECGSDSISEFRFAPN,3.43
19,SELGDYDPDECGSDFISEFRFAPN,2.18
20,SELGDYDPDECGSDQISEFRFAPN,3.05
21,SELGDYDPDECGSDRISEFRFAPN,2.74
22,SELGDVDPDECGSDYISEFRFAPN,2.1
23,SELGDRDPDECGSDYISEFRFAPN,1.84
24,SELGDADPDECGSDYISEFRFAPN,2.46

row,Variant,protein stability index
1,SELGDDDPDECGSDYISEFRFAPN,2.49
2,SELGDPDPDECGSDYISEFRFAPN,2.13
3,SELGDYDPDECGSDYISEFRFADN,4
4,SELGDYDPDECGSDYISEFRFAGN,2.37
5,SELGDYDPDECGSDYISEFRFAEN,4.66
6,SELGDYDPDECGSDYISEFRFAWN,2.47
7,SELGDYDPDECGSDYISEFRFANN,2.42
8,SELGDYDPDECGSDYISEFRFAMN,3.26
9,SELGDYDPDECGSDYISEFRFAFN,2.96
10,SELGDYDPDECGSDYTSEFRFAPN,3.8
11,SELGDYDPDECGSDYYSEFRFAPN,3.47
12,SELGDYDPDECGSDYQSEFRFAPN,3.81
13,SELGDYDPDECGSDYWSEFRFAPN,3.24
14,SELGDYDPDECGSDYGSEFRFAPN,4.45
15,SELGDYDPDECGSDYHSEFRFAPN,4.14
16,SELGDYDPDECGSDYESEFRFAPN,4.6
17,IELGDYDPDECGSDYISEFRFAPN,1.71
18,NELGDYDPDECGSDYISEFRFAPN,1.81
19,PELGDYDPDECGSDYISEFRFAPN,1.89
20,TELGDYDPDECGSDYISEFRFAPN,2.5
21,DELGDYDPDECGSDYISEFRFAPN,2.43
22,HELGDYDPDECGSDYISEFRFAPN,1.67
23,MELGDYDPDECGSDYISEFRFAPN,2.8
24,RELGDYDPDECGSDYISEFRFAPN,1.85

row,Variant,protein stability index
1,SEEGDYDPDECGSDYISEFRFAPN,1.88
2,SECGDYDPDECGSDYISEFRFAPN,2.15
3,SESGDYDPDECGSDYISEFRFAPN,2.67
4,SETGDYDPDECGSDYISEFRFAPN,2.2
5,SEYGDYDPDECGSDYISEFRFAPN,1.9
6,SEDGDYDPDECGSDYISEFRFAPN,2.66
7,SELGDYDPDECGSDYISHFRFAPN,2.37
8,SELGDYDPDECGSDYISVFRFAPN,2.06
9,SELGDYDPDECGSDYISMFRFAPN,1.96
10,SELGDYDPDECGSDYISTFRFAPN,1.94
11,SELGDYDPDECGSDYISGFRFAPN,2.16
12,SELGDYDPDECGSDYISKFRFAPN,2.5
13,SELGDYDPDECGSDYISWFRFAPN,1.99
14,SELGDYDPDECGSDYISNFRFAPN,2.15
15,SELGDYEPDECGSDYISEFRFAPN,3.01
16,SELGDYSPDECGSDYISEFRFAPN,1.47
17,SELGDYMPDECGSDYISEFRFAPN,1.93
18,SELGDYHPDECGSDYISEFRFAPN,2.14
19,SELGDYAPDECGSDYISEFRFAPN,1.91
20,SELGDYLPDECGSDYISEFRFAPN,1.56
21,SELGDYYPDECGSDYISEFRFAPN,1.7
22,SCLGDYDPDECGSDYISEFRFAPN,2.19
23,SVLGDYDPDECGSDYISEFRFAPN,2.04
24,SLLGDYDPDECGSDYISEFRFAPN,1.77

row,Variant,protein stability index
1,SILGDYDPDECGSDYISEFRFAPN,1.7
2,SFLGDYDPDECGSDYISEFRFAPN,2.14
3,SRLGDYDPDECGSDYISEFRFAPN,1.85
4,SELGDYDPDECGRDYISEFRFAPN,1.95
5,SELGDYDPDECGHDYISEFRFAPN,2.1
6,SELGDYDPDECGIDYISEFRFAPN,2.37
7,SELGDYDPDECGMDYISEFRFAPN,2
8,SELGDYDPDECGEDYISEFRFAPN,2.59
9,SELGDYDPDECGNDYISEFRFAPN,2.34
10,SELGDYDPDECGQDYISEFRFAPN,2.09
11,SELGDYDPDECGADYISEFRFAPN,2.08
12,SELGDYDPDECGSDYISEFRFSPN,3.33
13,SELGDYDPDECGSDYISEFRFYPN,3.51
14,SELGDYDPDECGSDYISEFRFEPN,4.24
15,SELGDYDPDECGSDYISEFRFFPN,3.5
16,SELGDYDPDECGSDYISEFRFKPN,4.27
17,SELGDYDPDECGSDYISEFRFCPN,2.59
18,SELGDYDPDECGSDYISEFRFWPN,3.47
19,SELGDYDPDECGSDYISEFRFQPN,2.39
20,SELGDYDPDECGSDYISEFRFHPN,2.13
21,SELGDYDPDECGSDYISEFRFNPN,3.46
22,SELGDYDPDECGSDYISEFRFDPN,4.92
23,SELPDYDPDECGSDYISEFRFAPN,2.23
24,SELWDYDPDECGSDYISEFRFAPN,1.7

row,Variant,protein stability index
1,SELADYDPDECGSDYISEFRFAPN,2.56
2,SELQDYDPDECGSDYISEFRFAPN,2
3,SELHDYDPDECGSDYISEFRFAPN,1.67
4,SELEDYDPDECGSDYISEFRFAPN,2.43
5,SELIDYDPDECGSDYISEFRFAPN,1.95
6,SELCDYDPDECGSDYISEFRFAPN,1.94
7,SELSDYDPDECGSDYISEFRFAPN,2.19
8,SELGDYDPDHCGSDYISEFRFAPN,1.5
9,SELGDYDPDMCGSDYISEFRFAPN,1.75
10,SELGDYDPDDCGSDYISEFRFAPN,1.81
11,SELGDYDPDECGSDYISEPRFAPN,4.97
12,SELGDYDPDECGSDYISEIRFAPN,4.67
13,SELGDYDPDECGSDYISETRFAPN,4.97
14,SELGDYDPDECGSDYISEYRFAPN,4.57
15,SELGDYDPDECGSDYISESRFAPN,5.13
16,SELGDYDPDECGSDYISELRFAPN,3.84
17,SELGDYDPDECGSDYISEHRFAPN,4.85
18,SELGDYDPDECGSDYISEVRFAPN,4.38
19,SELGDYDPDECGSDYISEERFAPN,5.42
20,SELGDYDPDECGSDYISEDRFAPN,5.28
